Source: patent US20160194391A1
One block for each binder: values may come before it.

Columns and labels:
human IL-6 (human) [1] = biological target: human IL-6 (human) (UniProt P05231)
[2] = biological target: human dimeric IL-23 (eBiosciences 34-8239) (human) (UniProt P29460)
3×FLAG-IL-6 (human) [3] = experiment: SPR, 3×FLAG-IL-6 captured by anti-FLAG M2 on protein G, scFv-PEG as analyte; material refolded by dialysis from urea; refolded by dialysis from urea
3×FLAG-IL-6 (human) [4] = experiment: SPR, 3×FLAG-IL-6 captured by anti-FLAG M2 on protein G, scFv-PEG as analyte; material refolded by rapid dilution from SDS; refolded by rapid dilution from SDS
human IL-6 (human) [5] = biological target: human IL-6 (human) (UniProt P05231); experiment: cell-based or functional assay
3×FLAG-IL-6 (human) [6] = experiment: SPR, 3×FLAG-IL-6 captured by anti-FLAG M2 on protein G, scFv-PEG as analyte; material refolded by dialysis from urea

Chain of human IL-6 (human) (P05231 30-212 limits assumed): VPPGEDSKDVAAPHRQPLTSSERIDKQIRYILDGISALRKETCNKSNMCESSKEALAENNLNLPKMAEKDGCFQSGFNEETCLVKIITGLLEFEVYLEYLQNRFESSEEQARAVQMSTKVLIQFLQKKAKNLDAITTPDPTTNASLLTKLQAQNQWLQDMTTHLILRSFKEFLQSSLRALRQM
Chain of 3×FLAG-IL-6 (human) (chain, as listed by the source limits assumed): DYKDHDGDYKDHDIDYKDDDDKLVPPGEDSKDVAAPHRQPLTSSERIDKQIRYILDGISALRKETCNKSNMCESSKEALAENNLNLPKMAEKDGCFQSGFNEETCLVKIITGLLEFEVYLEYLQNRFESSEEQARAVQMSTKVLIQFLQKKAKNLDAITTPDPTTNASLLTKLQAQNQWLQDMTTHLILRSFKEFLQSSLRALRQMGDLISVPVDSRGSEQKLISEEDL
Chain of human dimeric IL-23 (eBiosciences 34-8239) (human) (P29460 23-328 limits assumed, chain 1 of 2): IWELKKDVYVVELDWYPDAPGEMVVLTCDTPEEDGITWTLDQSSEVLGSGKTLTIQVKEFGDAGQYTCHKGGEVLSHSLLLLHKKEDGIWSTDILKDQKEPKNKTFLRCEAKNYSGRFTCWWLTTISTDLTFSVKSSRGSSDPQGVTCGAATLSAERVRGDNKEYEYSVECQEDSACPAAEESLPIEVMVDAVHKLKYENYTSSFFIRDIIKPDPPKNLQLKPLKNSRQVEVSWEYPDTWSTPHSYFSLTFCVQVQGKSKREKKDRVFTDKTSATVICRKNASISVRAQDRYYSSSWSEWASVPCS
Chain of human dimeric IL-23 (eBiosciences 34-8239) (human) (Q9NPF7 20-189 limits assumed, chain 2 of 2, further chain): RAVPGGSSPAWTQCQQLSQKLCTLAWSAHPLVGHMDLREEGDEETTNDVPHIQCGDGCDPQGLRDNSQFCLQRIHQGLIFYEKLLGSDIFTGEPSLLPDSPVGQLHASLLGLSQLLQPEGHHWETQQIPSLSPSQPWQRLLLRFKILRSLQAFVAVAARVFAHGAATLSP

B1: 28D2 N-Aha (scFv)
scFv: MEDIQLTQSPSFLSASVGDRVTITCQASEDLFSSLAWYQQKPGKAPKLLIYSASTLASGVPSRFSGSGSGTDFTLTISSLQPEDFATYYCLGLYYYLTPDPIYGFGGGTKVEIKGGGGSGGGGSGGGGSGGGGSEVQLVESGGGLVQPGGSLRLSCTVSGLSLSKNAIAWVRQAPGKGLEWVGIIYAGGATTYASWAKGRFTISRDNSKNTLYLQLNSLRAEDTAVYYCAREYAGDSYYTGYTQLDLWGQGTLVTVSSGPPPPPHHHHHH
modifications: azidohomoalanine (Aha) in place of the single Met, at the N terminus
IC50 (read off the curve) (B9 proliferation, OD570-600) (human IL-6 (human) [1]): 0.03 ng/mL

B2: 28D2-L Aha (scFv)
scFv: MADIQLTQSPSFLSASVGDRVTITCQASEDLFSSLAWYQQKPGKAPKLLIYSASTLASGVPSRFSGSGSGTDFTLTISSLQPEDFATYYCLGLYYYLTPDPIYGFGGGTKVEIKGGGGSGMGGSGGGGSGGGGSEVQLVESGGGLVQPGGSLRLSCTVSGLSLSKNAIAWVRQAPGKGLEWVGIIYAGGATTYASWAKGRFTISRDNSKNTLYLQLNSLRAEDTAVYYCAREYAGDSYYTGYTQLDLWGQGTLVTVSSGPPPPPHHHHHH
modifications: azidohomoalanine (Aha) in place of a single Met in the Gly/Ser linker between VL and VH
IC50 (read off the curve) (B9 proliferation, OD570-600) (human IL-6 (human) [1]): 0.03 ng/mL

B5: 28D2-C Aha (scFv)
scFv: MAHHHHHHPPPPAAADIQLTQSPSFLSASVGDRVTITCQASEDLFSSLAWYQQKPGKAPKLLIYSASTLASGVPSRFSGSGSGTDFTLTISSLQPEDFATYYCLGLYYYLTPDPIYGFGGGTKVEIKGGGGSGGGGSGGGGSGGGGSEVQLVESGGGLVQPGGSLRLSCTVSGLSLSKNAIAWVRQAPGKGLEWVGIIYAGGATTYASWAKGRFTISRDNSKNTLYLQLNSLRAEDTAVYYCAREYAGDSYYTGYTQLDLWGQGTLVTVSSGM
modifications: azidohomoalanine (Aha) in place of the single Met, at the C terminus
IC50 (read off the curve) (B9 proliferation, OD570-600) (human IL-6 (human) [1]): 0.03 ng/mL

Second part, the binder after the results:

IC50 (read off the curve) (IL-17 from mouse splenocytes, OD450) [2]: 0.4 ng/mL
B3: 45G5 humanized scFv (mammalian expressed) (scFv)
scFv: DIQLTQSPSFLSASVGDRVTITCQSSQSIYNNNLLSWYQQKPGKAPKLLIYFASTLASGVPSRFSGSGSGTEFTLTISSLQPEDFATYYCLGGYDDDADTAFGGGTKVEIKGGGGSGGGGSGGGGSGGGGSEVQLVESGGGLVQPGGSLRLSCTVSGFSLSVYPINWVRQAPGKGLEWVGIINDVDDTAYSAWAKGRFTISRDNSKNTLYLQMNSLRAEDTAVYYCARGYLSYAYAGDAFDPWGQGTLVTVSSGPPPPHHHHHH

kon (3×FLAG-IL-6 (human) [3]): 507000 M⁻¹ s⁻¹ | Kd (3×FLAG-IL-6 (human) [4]): 0.319 nM | koff (3×FLAG-IL-6 (human) [4]): 0.000104 s⁻¹ | kon (3×FLAG-IL-6 (human) [4]): 326000 M⁻¹ s⁻¹ | EC50, IL-6 neutralization; folded by dialysis from urea (human IL-6 (human) [5]): 0.116 ng/mL | EC50 of the product; folded by rapid dilution from SDS (human IL-6 (human) [5]): 0.256 ng/mL | EC50 of the product; folded by rapid dilution from urea (human IL-6 (human) [5]): 0.138 ng/mL | EC50 of the product; folded from guanidine (human IL-6 (human) [5]): 0.15 ng/mL | Kd (3×FLAG-IL-6 (human) [6]): 0.193 nM | koff (3×FLAG-IL-6 (human) [6]): 9.78e-05 s⁻¹
B4: 28D2c-PEG (scFv)
scFv: MAHHHHHHPPPPAAADIQLTQSPSFLSASVGDRVTITCQASEDLFSSLAWYQQKPGKAPKLLIYSASTLASGVPSRFSGSGSGTDFTLTISSLQPEDFATYYCLGLYYYLTPDPIYGFGGGTKVEIKGGGGSGGGGSGGGGSGGGGSEVQLVESGGGLVQPGGSLRLSCTVSGLSLSKNAIAWVRQAPGKGLEWVGIIYAGGATTYASWAKGRFTISRDNSKNTLYLQLNSLRAEDTAVYYCAREYAGDSYYTGYTQLDLWGQGTLVTVSSGM
modifications: C-terminal azidohomoalanine (Aha) conjugated to 30 kDa linear PEG alkyne
